How the values were obtained:
[1] = target: T1, p120^CTN (immunoprecipitated), O60716
T1 chain: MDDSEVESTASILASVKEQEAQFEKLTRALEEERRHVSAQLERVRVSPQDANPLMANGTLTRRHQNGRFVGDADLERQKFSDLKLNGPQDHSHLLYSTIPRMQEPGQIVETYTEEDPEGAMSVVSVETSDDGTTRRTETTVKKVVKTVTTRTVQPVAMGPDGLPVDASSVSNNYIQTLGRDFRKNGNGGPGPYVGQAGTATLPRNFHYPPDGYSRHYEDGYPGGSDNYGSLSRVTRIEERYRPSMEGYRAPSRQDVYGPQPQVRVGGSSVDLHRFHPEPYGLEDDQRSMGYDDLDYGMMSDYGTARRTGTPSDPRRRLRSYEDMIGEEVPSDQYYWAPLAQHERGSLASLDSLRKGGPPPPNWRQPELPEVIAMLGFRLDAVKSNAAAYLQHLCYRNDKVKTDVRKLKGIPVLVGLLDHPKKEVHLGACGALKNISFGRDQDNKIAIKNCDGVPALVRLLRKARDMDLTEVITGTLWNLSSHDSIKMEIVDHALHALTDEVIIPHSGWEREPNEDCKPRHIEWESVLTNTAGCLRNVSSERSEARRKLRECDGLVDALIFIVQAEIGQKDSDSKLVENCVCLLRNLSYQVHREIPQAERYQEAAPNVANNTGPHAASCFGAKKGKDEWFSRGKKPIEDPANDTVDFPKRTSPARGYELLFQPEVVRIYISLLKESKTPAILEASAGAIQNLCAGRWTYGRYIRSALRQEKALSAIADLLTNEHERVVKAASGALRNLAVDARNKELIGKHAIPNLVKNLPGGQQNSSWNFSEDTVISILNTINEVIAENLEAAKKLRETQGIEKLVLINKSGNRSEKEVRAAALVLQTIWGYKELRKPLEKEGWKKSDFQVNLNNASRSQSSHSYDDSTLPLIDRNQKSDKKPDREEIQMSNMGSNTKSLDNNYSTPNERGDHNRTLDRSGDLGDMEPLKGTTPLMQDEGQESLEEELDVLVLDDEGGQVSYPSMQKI

[2] = target: T2, β-catenin (immunoprecipitated), P35222
T2 chain: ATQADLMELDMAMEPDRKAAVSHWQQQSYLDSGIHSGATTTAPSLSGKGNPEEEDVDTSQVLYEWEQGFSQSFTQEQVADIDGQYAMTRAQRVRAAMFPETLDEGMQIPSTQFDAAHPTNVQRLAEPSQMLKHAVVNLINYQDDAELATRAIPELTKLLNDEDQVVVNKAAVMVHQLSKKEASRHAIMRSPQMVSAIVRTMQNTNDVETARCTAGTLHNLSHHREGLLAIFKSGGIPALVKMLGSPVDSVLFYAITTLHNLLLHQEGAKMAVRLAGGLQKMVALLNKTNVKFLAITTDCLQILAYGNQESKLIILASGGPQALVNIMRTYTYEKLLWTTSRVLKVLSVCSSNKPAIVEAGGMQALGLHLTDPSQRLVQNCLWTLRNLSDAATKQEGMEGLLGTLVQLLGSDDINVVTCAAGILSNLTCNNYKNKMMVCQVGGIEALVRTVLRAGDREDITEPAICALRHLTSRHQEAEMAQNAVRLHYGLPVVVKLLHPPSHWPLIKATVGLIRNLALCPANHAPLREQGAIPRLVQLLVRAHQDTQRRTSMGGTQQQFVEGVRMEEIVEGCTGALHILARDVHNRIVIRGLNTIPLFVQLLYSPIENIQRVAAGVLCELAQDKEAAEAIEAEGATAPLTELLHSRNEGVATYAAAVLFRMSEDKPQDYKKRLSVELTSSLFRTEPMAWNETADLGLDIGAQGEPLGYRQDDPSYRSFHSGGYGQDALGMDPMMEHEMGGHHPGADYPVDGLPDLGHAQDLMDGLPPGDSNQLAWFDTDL

[3] = target: T3, Cell permeable caspase inhibitor containing the sequence IETD, P08620
T3 chain: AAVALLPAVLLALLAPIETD

B1: Recombinant caspase-8 (protein)
chain: SESQTLDKVYQMKSKPRGYCLIINNHNFAKAREKVPKLHSIRDRNGTHLDAGALTTTFEELHFEIKPHDDCTVEQIYEILKIYQLMDHSNMDCFICCILSHGDKGIIYGTDGQEAPIYELTSQFTGLKCPSLAGKPKVFFIQACQGDNYQKGIPVETDSEEQPYLEMDLSSPQTRYIPDEADFLLGMATVNNCVSYRNPAEGTWYIQSLCQSLRERCPRGDDILTILTEVNYEVSNKDDKKNMGKQMPQPTFTLRKKLVFPSD
In vitro cleavage of the immunoprecipitated protein [1]: Cleavage of immunoprecipitated β-catenin and p120^CTN by recombinant caspase-8 in vitro also was not demonstrated
In vitro cleavage of the immunoprecipitated protein [2]: Cleavage of immunoprecipitated β-catenin and p120^CTN by recombinant caspase-8 in vitro also was not demonstrated

B2: Caspase-8 (endogenous, in melanocytes and melanoma cells) (protein)
chain: MDFSRNLYDIGEQLDSEDLASLKFLSLDYIPQRKQEPIKDALMLFQRLQEKRMLEESNLSFLKELLFRINRLDLLITYLNTRKEEMERELQTPGRAQISAYRVMLYQISEEVSRSELRSFKFLLQEEISKCKLDDDMNLLDIFIEMEKRVILGEGKLDILKRVCAQINKSLLKIINDYEEFSKERSSSLEGSPDEFSNGEELCGVMTISDSPREQDSESQTLDKVYQMKSKPRGYCLIINNHNFAKAREKVPKLHSIRDRNGTHLDAGALTTTFEELHFEIKPHDDCTVEQIYEILKIYQLMDHSNMDCFICCILSHGDKGIIYGTDGQEAPIYELTSQFTGLKCPSLAGKPKVFFIQACQGDNYQKGIPVETDSEEQPYLEMDLSSPQTRYIPDEADFLLGMATVNNCVSYRNPAEGTWYIQSLCQSLRERCPRGDDILTILTEVNYEVSNKDDKKNMGKQMPQPTFTLRKKLVFPSD
Proteolytic processing of caspase-8 (immunoblot) [3]: Treatment of cells with a cell permeable inhibitor of caspase-8 prevented its proteolytic processing

Reference: patent publication US8597645
